Assay results published in PMC9666628 (Nature Communications, 2022).

Experiments:
Settings in all cases: both partners purified
[1] = target: T1, Cbx7 K33E (human, UniProt O95931 7-66, K33E); assay: fluorescence polarisation; 0.5 nM FITC-labeled peptide, chromodomain serially diluted (wild type 200-0.2 µM; Cbx7.V1 50 µM-50 nM); 25 mM HEPES pH 7.5, 150 mM NaCl, 1 mM DTT, 0.01% TritonX-100; 30 min at 25 °C; one-site total binding model
T1 construct: chromodomain of human Cbx7 (UniProt O95931) with K33E; source: E. coli BL21(DE3), purified (Ni-NTA); tags removed with TEV protease
T1 sequence: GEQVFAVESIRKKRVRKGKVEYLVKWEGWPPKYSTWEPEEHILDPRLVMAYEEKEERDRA

[2] = target: T2, Cbx7.V1 (human, UniProt O95931 7-66, E8D (back-mutant printed as D8E) | Q9D (back-mutant printed as D9Q) | V10I …); assay: as above
T2 construct: also called Cbx7.5; source: E. coli BL21(DE3), purified (Ni-NTA); tags removed with TEV protease
T2 sequence: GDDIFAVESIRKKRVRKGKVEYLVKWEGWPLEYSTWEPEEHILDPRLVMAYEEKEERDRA

[3] = target: T3, Cbx7 Q9D (human, UniProt O95931 7-66, Q9D); assay: as above
T3 construct: chromodomain of human Cbx7 (UniProt O95931) with Q9D; source: E. coli BL21(DE3), purified (Ni-NTA); tags removed with TEV protease
T3 sequence: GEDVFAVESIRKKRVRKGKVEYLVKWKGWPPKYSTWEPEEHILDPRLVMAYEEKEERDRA

[4] = target: T4, Cbx7.V1 D9Q back-mutant (human, UniProt O95931 7-66, E8D (printed as the back-mutation D8E) | V10I (printed as the back-mutation …)); assay: BLI; biotinylated peptides immobilised on streptavidin biosensor tips (Octet HTX); chromodomains in solution at 5 or 1 µM; 25 °C; 25 mM HEPES pH 7.0, 150 mM NaCl, 1 mg/ml BSA, 0.01% Tween-20; steady-state fit, Langmuir model
T4 construct: chromodomain of human Cbx7, UniProt O95931; Cbx7.V1 with residue 9 back to the wild type; source: E. coli BL21(DE3), purified (Ni-NTA)
T4 sequence: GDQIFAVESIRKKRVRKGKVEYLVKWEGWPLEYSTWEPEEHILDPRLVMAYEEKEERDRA

[5] = target: T5, Cbx7.V1 E33K back-mutant (human, UniProt O95931 7-66, E8D (printed as the back-mutation D8E) | Q9D | V10I (printed as the …)); assay: as above
T5 construct: chromodomain of human Cbx7, UniProt O95931; Cbx7.V1 with residue 33 back to the wild type; source: E. coli BL21(DE3), purified (Ni-NTA)
T5 sequence: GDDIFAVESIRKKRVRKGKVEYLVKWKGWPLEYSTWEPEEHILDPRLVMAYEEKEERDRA

[6] = target: T6, Cbx7.V1 E38K back-mutant (human, UniProt O95931 7-66, E8D (printed as the back-mutation D8E) | Q9D | V10I (printed as the …)); assay: as above
T6 construct: chromodomain of human Cbx7, UniProt O95931; Cbx7.V1 with residue 38 back to the wild type; source: E. coli BL21(DE3), purified (Ni-NTA)
T6 sequence: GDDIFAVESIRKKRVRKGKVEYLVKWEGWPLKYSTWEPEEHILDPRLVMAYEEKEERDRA

[7] = target: T7, Cbx7.V1 D8E back-mutant (human, UniProt O95931 7-66, Q9D | V10I (printed as the back-mutation I10V) | K33E | P37L (printed as the …)); assay: as above
T7 construct: chromodomain of human Cbx7, UniProt O95931; Cbx7.V1 with residue 8 back to the wild type; source: E. coli BL21(DE3), purified (Ni-NTA)
T7 sequence: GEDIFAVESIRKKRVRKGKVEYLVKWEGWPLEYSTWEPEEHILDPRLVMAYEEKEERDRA

[8] = target: T8, Cbx7.V1 L37P back-mutant (human, UniProt O95931 7-66, E8D (printed as the back-mutation D8E) | Q9D | V10I (printed as the …)); assay: as above
T8 construct: chromodomain of human Cbx7, UniProt O95931; Cbx7.V1 with residue 37 back to the wild type; source: E. coli BL21(DE3), purified (Ni-NTA)
T8 sequence: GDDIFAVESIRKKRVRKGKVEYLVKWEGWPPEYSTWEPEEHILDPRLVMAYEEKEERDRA

[9] = target: T9, Cbx7.V1 (His6- and Flag-tagged construct, used for BLI) (human, UniProt O95931 7-66, E8D (printed as the back-mutation D8E) | Q9D | V10I (printed as the …)); assay: as above
T9 construct: chromodomain of human Cbx7 (Cbx7-chromo), UniProt O95931; removal of the tags is told only for FP and ITC; source: E. coli BL21(DE3), purified (Ni-NTA)
T9 sequence: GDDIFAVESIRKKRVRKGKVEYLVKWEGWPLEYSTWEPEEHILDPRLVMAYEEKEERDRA

[10] = target: T10, Cbx7.V1 I10V back-mutant (human, UniProt O95931 7-66, E8D (printed as the back-mutation D8E) | Q9D | K33E | P37L (printed as the …)); assay: as above
T10 construct: chromodomain of human Cbx7, UniProt O95931; Cbx7.V1 with residue 10 back to the wild type; source: E. coli BL21(DE3), purified (Ni-NTA)
T10 sequence: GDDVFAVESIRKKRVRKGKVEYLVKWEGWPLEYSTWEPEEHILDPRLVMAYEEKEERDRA

[11] = target: T11, Cbx7.V1 (tags removed, used for FP and ITC) (human, UniProt O95931 7-66, E8D (printed as the back-mutation D8E) | Q9D | V10I (printed as the …)); assay: ITC; peptides (1.2-2 mM, syringe) titrated into Cbx7.V1 (70-112 µM, cell); 25 °C; PBS pH 7.4, 1 mM TCEP; one-site binding model
T11 construct: chromodomain of human Cbx7 (Cbx7-chromo), UniProt O95931; source: E. coli BL21(DE3), purified (Ni-NTA; tags removed with TEV protease)
T11 sequence: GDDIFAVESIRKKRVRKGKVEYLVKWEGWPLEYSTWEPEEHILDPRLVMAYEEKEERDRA

[12] = target: T12, wild-type Cbx8 chromodomain (tags removed) (human, UniProt Q9HC52 8-61); assay: fluorescence polarisation; 0.5 nM FITC-labelled peptide; chromodomains 200-0.2 µM (wild type) or 50 µM-50 nM (Cbx7.V1 and all Cbx.VDs); 30 min at 25 °C; 25 mM HEPES pH 7.5, 150 mM NaCl, 1 mM DTT, 0.01% TritonX-100; one-site total binding model
T12 construct: chromodomain of human Cbx8; also called Cbx8.wt; source: E. coli BL21(DE3), purified (Ni-NTA; tags removed with TEV protease)
T12 sequence: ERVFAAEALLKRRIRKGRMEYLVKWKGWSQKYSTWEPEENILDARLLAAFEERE

[13] = target: T13, wild-type Cbx2 chromodomain (tags removed) (human, UniProt Q14781 9-62); assay: as above
T13 construct: chromodomain of human Cbx2; also called Cbx2.wt; source: E. coli BL21(DE3), purified (Ni-NTA; tags removed with TEV protease)
T13 sequence: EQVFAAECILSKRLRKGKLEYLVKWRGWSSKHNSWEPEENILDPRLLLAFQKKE

[14] = target: T14, Cbx7.VD chromodomain, Q9D/K33E (tags removed) (human, UniProt O95931 7-66, Q9D | K33E); assay: as above
T14 construct: chromodomain of human Cbx7 (Cbx7-chromo), UniProt O95931; source: E. coli BL21(DE3), purified (Ni-NTA; tags removed with TEV protease)
T14 sequence: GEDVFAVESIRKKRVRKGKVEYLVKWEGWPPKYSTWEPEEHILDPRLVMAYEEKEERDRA

[15] = target: T15, Cbx7 K33E chromodomain (tags removed) (human, UniProt O95931 7-66, K33E); assay: as above
T15 construct: chromodomain of human Cbx7 (Cbx7-chromo), UniProt O95931; source: E. coli BL21(DE3), purified (Ni-NTA; tags removed with TEV protease)
T15 sequence: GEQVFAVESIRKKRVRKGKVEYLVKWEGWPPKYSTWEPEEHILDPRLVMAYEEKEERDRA

[16] = target: T16, Cbx7 Q9D chromodomain (tags removed) (human, UniProt O95931 7-66, Q9D); assay: as above
T16 construct: chromodomain of human Cbx7 (Cbx7-chromo), UniProt O95931; source: E. coli BL21(DE3), purified (Ni-NTA; tags removed with TEV protease)
T16 sequence: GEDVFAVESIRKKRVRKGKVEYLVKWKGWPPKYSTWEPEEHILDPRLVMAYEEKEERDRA

[17] = target: T17, wild-type Cbx7 chromodomain (tags removed) (human, UniProt O95931 7-66); assay: as above
T17 construct: chromodomain of human Cbx7 (Cbx7-chromo), UniProt O95931; also called Cbx7.wt; source: E. coli BL21(DE3), purified (Ni-NTA; tags removed with TEV protease)
T17 sequence: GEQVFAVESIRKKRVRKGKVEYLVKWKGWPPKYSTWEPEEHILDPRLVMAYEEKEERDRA

[18] = target: T11, Cbx7.V1 (tags removed, used for FP and …); assay: as above

| Binder | Kd [1] | Kd [2] | Kd [3] | Kd [4] | Kd [5] | Kd [6] | Kd [7] | Kd [8] | Kd [9] | Kd [10] | Kd [11] | stoichiometry N [11] | further results |
| --- | --- | --- | --- | --- | --- | --- | --- | --- | --- | --- | --- | --- | --- |
| ARTKQTARKSTGGKAPR (trimethyl-lysine at K9 (Kme3); fluorescein isothiocyanate (FITC) on the N-terminus, histone H3 N-terminal tail, residues 1-17; source: synthetic peptide (GenScript)) [FITC-labeled H3K9me3 peptide] | 18 µM | 7.2 µM | 12.3 µM | – | – | – | – | – | – | – | – | – | – |
| KQLATKAARKSAPATGGVK (trimethyl-lysine at K27 (Kme3); fluorescein isothiocyanate (FITC) on the N-terminus, histone H3 tail, residues 18-36; source: synthetic peptide (GenScript)) [FITC-labeled H3K27me3 peptide] | 17.5 µM | 4.2 µM | 97 µM | – | – | – | – | – | – | – | – | – | – |
| ARTKQTARKSTGGKAPR (trimethyl-lysine at K9; biotin followed by an aminohexanoic acid linker at the N-terminus) [H3K9me3 peptide, N-terminal biotin] | – | – | – | > 20 µM | 10 µM | 2 µM | 5 µM | 3 µM | 4.5 µM | 3.5 µM | 7 µM | ~1 | – |
| KQLATKAARKSAPATGGVK (trimethyl-lysine at K27; biotin followed by an aminohexanoic acid linker at the N-terminus) [H3K27me3 peptide, N-terminal biotin] | – | – | – | 2 µM | > 20 µM | 1.5 µM | 2 µM | 2.5 µM | 2 µM | 2 µM | 7.8 µM | ~1 | – |
| KQLATKAARKSAPATGGVK (trimethyl-lysine at K27; fluorescein isothiocyanate (FITC) at the N-terminus) [H3K27me3 peptide, N-terminal FITC] | – | – | – | – | – | – | – | – | – | – | – | – | Kd [12]: > 200 µM; Kd [13]: 100 µM; Kd [14]: 5 µM; Kd [15]: 20 µM; Kd [16]: 100 µM; Kd [17]: 110 µM; Kd [18]: 4 µM |
